The values that follow come from patent publication US20170121390A1.

In the assay the target is HCV E1-E2 protein complex of hepatitis C virus isolate H77 (genotype 1a), expressed from plasmid pcDNA3.1-E1E2 (hepatitis C virus isolate H77 (genotype 1a)) (UniProt P27958). As to the kind of experiment: cell-based or functional assay.

“fully human monoclonal antibody Adalimumab (brand name Humira)” showed a Degree of inhibition (times) of 1.09 times and an Infection effectiveness (percentage of fluorescent cells) of 58.1%.
